Results on eight substances are retold here after US20160311919A1.

In assay [1] the target is GPNMB-V5His (recombinant human GPNMB extracellular domain with C-terminal V5-His tag) (human) (UniProt Q14956). As to the kind of experiment: ELISA, coated GPNMB, Ab 1 ug/mL. For orientation: ELISA stands for enzyme-linked immunosorbent assay.
The target is the same in assay [2]. As to the kind of experiment: ELISA, coated GPNMB, Ab 3 ug/mL.
For assay [3] the target is unchanged. As to the kind of experiment: ELISA, coated GPNMB, Ab 111 ng/mL.
For assay [4] the target is unchanged. As to the kind of experiment: ELISA, coated GPNMB, Ab 333 ng/mL.
Assay [5] has as its target GPNMB (CG56972), native full-length protein on the cell surface or in cell lysates (human) (UniProt Q14956). Briefly: flow cytometry on HEK293 cells transfected with GPNMB plasmid, 10 µg/mL antibody, PE goat anti-human secondary; the same staining on empty-vector cells prints 7.96.
Assay [6] has as its target GPNMB-V5His (recombinant human GPNMB extracellular domain with C-terminal V5-His tag) (human) (UniProt Q14956). As to the kind of experiment: ELISA, coated GPNMB, Ab 37 ng/mL.
For assay [7] the target is unchanged. As to the kind of experiment: ELISA, coated GPNMB, Ab 12.3 ng/mL.
Assay [8] addresses GPNMB (CG56972), native full-length protein on the cell surface or in cell lysates (human) (UniProt Q14956). Briefly: flow cytometry on SK-MEL-2 cells, Anti Human IgG PE.
Assay [9] concerns the target GPNMB-V5His (recombinant human GPNMB extracellular domain with C-terminal V5-His tag) (human) (UniProt Q14956). As to the kind of experiment: SPR (Biacore), mAb on protein A, GPNMB 880 nM. (Surface plasmon resonance follows binding to a sensor surface in real time, without labels.)
Assay [10] has as its target GPNMB (CG56972), native full-length protein on the cell surface or in cell lysates (human) (UniProt Q14956). Briefly: flow cytometry on HEK293 cells transfected with GPNMB plasmid, secondary antibody alone; on empty-vector cells it prints 5.86. On the technique in general: In flow cytometry, cells or beads pass a laser one at a time.
In assay [11] the target is GPNMB-V5His (recombinant human GPNMB extracellular domain with C-terminal V5-His tag) (human) (UniProt Q14956). Briefly: ELISA, coated GPNMB, secondary antibody alone (column head 3 ug/mL).
Assay [12] has as its target GPNMB (CG56972), native full-length protein on the cell surface or in cell lysates (human) (UniProt Q14956). As to the kind of experiment: FACS, UACC-62 cells, Ab 1 ug/mL.

Chain of GPNMB (CG56972), native full-length protein on the cell surface or in cell lysates (human) (Q14956 23-492): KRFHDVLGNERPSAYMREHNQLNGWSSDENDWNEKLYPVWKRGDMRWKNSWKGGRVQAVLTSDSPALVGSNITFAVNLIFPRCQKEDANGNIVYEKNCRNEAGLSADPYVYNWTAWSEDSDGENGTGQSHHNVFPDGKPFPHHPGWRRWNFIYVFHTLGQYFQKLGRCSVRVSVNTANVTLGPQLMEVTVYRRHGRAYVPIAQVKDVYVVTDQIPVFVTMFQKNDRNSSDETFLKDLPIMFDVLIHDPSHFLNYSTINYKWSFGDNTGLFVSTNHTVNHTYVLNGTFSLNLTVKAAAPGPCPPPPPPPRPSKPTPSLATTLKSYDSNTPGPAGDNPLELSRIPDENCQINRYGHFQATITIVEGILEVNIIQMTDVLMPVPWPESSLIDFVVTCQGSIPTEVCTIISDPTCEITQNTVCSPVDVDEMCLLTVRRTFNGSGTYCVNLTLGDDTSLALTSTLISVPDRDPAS

Regarding Irrelevant Antibody (Table 6), the Avg OD in assay [1] is 0.008 OD; in assay [2], 0.009 OD; in [3] it was 0.013 OD; in assay [4], 0.012 OD.

In assay [5], isotype-matched control IgG2 antibody showed a Geometric Mean of 8.63.

In the case of Isotype control (Table 6) (antibody), the Avg OD in assay [1] was 0.008 OD; in [2], 0.009 OD; in assay [6], 0.009 OD; in [3], 0.009 OD; in assay [4], 0.009 OD; in assay [7], 0.011 OD.

In assay [8], Control (antibody) showed a Geo Mean of 3.03, a Mean of 3.54 and a Median of 2.84.

Usually Kd stands for the constant that tells how readily two partners part at equilibrium. As to “Mab1.15.1 (CR011), fully human IgG2 (antibody)”, the Avg OD was 1.05 OD in [1]; 1.16 OD in [2]; 0.381 OD in assay [6]; 0.701 OD in [3]; 0.902 OD in assay [4]; 0.168 OD in [7]. The Kd in assay [9] came out at 0.052 µM.

As to Secondary Ab-PE (antibody), the Geometric Mean in assay [10] was 7.69.

For the substance “Secondary Ab control (Table 6) (antibody)”, in [11], the Avg OD amounted to 0.011 OD.

For CR011.2.6.2 (antibody), the Geo Mean Ratio (relative to pK16) in [12] was found to be 1.9.
